Measurements from PMC7320145, “Substrate Channeling via a Transient Protein-Protein Complex: The case of D-Glyceraldehyde-3-Phosphate Dehydrogenase and L-Lactate Dehydrogenase” (Scientific Reports, 2020).

B1: baker's yeast D-glyceraldehyde-3-phosphate dehydrogenase (enzyme)
chain: VRVAINGFGRIGRLVMRIALSRPNVEVVALNDPFITNDYAAYMFKYDSTHGRYAGEVSHDDKHIIVDGKKIATYQERDPANLPWGSSNVDIAIDSTGVFKELDTAQKHIDAGAKKVVITAPSSTAPMFVMGVNEEKYTSDLKIVSNASCTTNCLAPLAKVINDAFGIEEGLMTTVHSLTATQKTVDGPSHKDWRGGRTASGNIIPSSTGAAKAVGKVLPELQGKLTGMAFRVPTVDVSVVDLTVKLNKETTYDEIKKVVKAAAEGKLKGVLGYTEDAVVSSDFLGDSHSSIFDASAGIQLSPKFVKLVSWYDNEYGYSTRVVDLVEHVAKA
modifications: Homotetramer, apo-enzyme preparation from yeast (NADH added in the binding assays). The isozyme is taken as TDH3 because the cited PDB 3PYM is GAPDH 3. The natural preparation may contain minor …
B2: porcine heart L-lactate dehydrogenase (enzyme)
chain: not shown
notes: L-lactate dehydrogenase from porcine heart (phLDH), tetramer; also called phLDH; PhLDH

Experiments:
[1] = target: B2; assay: AUC; sedimentation velocity of a mixture of phLDH and byGAPDH, each 6 μM; 50 mM Tris/HCl, pH = 7.2, 1 mM EDTA, 0.5 mM DTT; scans at 280 nm, 7 hours at 40,000 x g; fit with SEDFIT to a one-component model and compared with a Claverie simulation of 10% association; conditions: both partners purified
[2] = target: B1; assay: cell-based or functional assay
[3] = target: T1, rabbit muscle D-glyceraldehyde-3-phosphate dehydrogenase (rabbit, UniProt P46406 2-333); assay: cell-based or functional assay
T1 sequence (P46406 2-333): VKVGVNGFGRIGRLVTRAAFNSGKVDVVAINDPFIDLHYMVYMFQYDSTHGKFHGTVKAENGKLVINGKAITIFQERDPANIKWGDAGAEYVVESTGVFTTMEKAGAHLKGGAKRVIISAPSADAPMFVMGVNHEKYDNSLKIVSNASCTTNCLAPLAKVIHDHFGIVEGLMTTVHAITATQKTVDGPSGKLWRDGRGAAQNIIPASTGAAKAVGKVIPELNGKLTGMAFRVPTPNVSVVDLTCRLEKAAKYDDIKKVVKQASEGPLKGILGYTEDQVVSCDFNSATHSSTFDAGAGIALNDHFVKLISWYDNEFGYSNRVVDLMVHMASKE

[4] = target: B1; assay: cell-based or functional assay; remark: listed apart in the source
[5] = target: T1, rabbit muscle …; assay: cell-based or functional assay; remark: listed apart in the source
[6] = target: the molecule itself; assay: AUC; sedimentation velocity of each enzyme alone at 6 μM; scans at 280 nm, 7 hours at 40,000 x g; SEDFIT with s and Mr as free fit parameters; Mr compared with the mass calculated from the sequence

| Binder | Kd [1] [µM] | ratio between measured phLDH activity and the calculated free-diffusion activity; 40 μM NADH, byGAPDH 240 to 480 μM of NADH binding sites; ratio rises from 3.5 to 6.1 fold [2] [fold] | ratio between measured phLDH activity and the calculated free-diffusion activity; byGAPDH fixed at 480 μM NADH binding sites, NADH decreased from 40 to 10 μM; ratio rises from 5.2 to 6.6 fold [2] [fold] | ratio between measured phLDH activity and the calculated free-diffusion activity; 40 μM NADH, rmGAPDH 100 to 240 μM of NADH binding sites; ratio rises from 1.3 to 2.0 fold [3] [fold] | ratio between measured phLDH activity and the calculated free-diffusion activity; rmGAPDH fixed at 200 μM NADH binding sites, NADH decreased from 40 to 10 μM; ratio rises from 1.7 to 2.28 fold [3] [fold] | apparent KM of phLDH with byGAPDH-NADH complex as substrate (630 μM pyruvate) [4] [µM] | apparent KM of phLDH with rmGAPDH-NADH complex as substrate (630 μM pyruvate) [5] [µM] | binding result [6] |
| --- | --- | --- | --- | --- | --- | --- | --- | --- |
| B1 | ≥ 48.6 | – | – | – | – | – | – | – |
| B2 | – | 6.1 | 6.6 | 2 | 2.28 | 116 | 59.6 | binds |
